From article PMC11335228
Several values for one entry are separate records, joined by “and”; a condition that tells them apart may be missing. Equal values may be shown once.

Assays:
Details in all cases: remark: other sources report otherwise
[1] = molecular target: T1, DAP12, endogenous in macrophage-like differentiated THP-1 cells (human (endogenous in THP-1)), O43914; assay: non-reducing SDS-PAGE and western immunoblotting; membranes of differentiated THP-1 cells (wt and TREM2 ko; with or without MG132, lactacystin or chloroquine for 4 h); SDS sample buffer without DTT, 5 min 95 °C
[2] = molecular target: T1, DAP12, endogenous in macrophage-like …; assay: as above; remark: listed apart in the source
[3] = molecular target: T2, DNAX-activating protein of 12 kDa (DAP12) wt, overexpressed in HEK293 cells, O43914; assay: SDS-PAGE and western immunoblotting; membranes of HEK293 Flp-In cells stably overexpressing DAP12 alone or with TREM2 wt or TREM2 K186N; with or without proteasome inhibitors (Suppl. Figure S3)
[4] = molecular target: T2, DNAX-activating protein of 12 kDa …; assay: SDS-PAGE and western immunoblotting; HEK293 cells transiently expressing DAP12 wt or DAP12 D50A with or without TREM2 (blots of Fig. 5A); SDS resistant oligomers

| Binder | stoichiometry N [1] | stoichiometry N [2] | stoichiometry N [3] | stoichiometry N [4] |
| --- | --- | --- | --- | --- |
| DAP12, endogenous in macrophage-like differentiated THP-1 cells, O43914 22-113 (natural protein) LRPVQAQAQSDCSCSTVSPGVLAGIVMGDLVLTVLIALAVYFLGRLVPRGRGAAEAATRKQRITETESPYQELQGQRSDVYSDLNTQRPYYK | 3 | 2 | – | – |
| DNAX-activating protein of 12 kDa (DAP12) wt, overexpressed in HEK293 cells, O43914 22-113 (natural protein) LRPVQAQAQSDCSCSTVSPGVLAGIVMGDLVLTVLIALAVYFLGRLVPRGRGAAEAATRKQRITETESPYQELQGQRSDVYSDLNTQRPYYK | – | – | 2 and 3 | 3 and 4 |
